Test results: patent publication US20060257938A1, “Method of screening for drugs that block ligand binding to a lipid binding protein” (priority 2005, published 2006)
Changes are numbered by the printed parent chain.

B1: 23F2, 72A (protein, listed as Rattus norvegicus)
chain: AFDGTWKVDRNENYEKFMEKMGFNVVKRKLGAHDNLKLTITQEGNKFTVKESSNFRNIDVVFELGVDFAYSAADGTELTGTWTMEGNKLVGKFKRVDNGKELIAVREISGNELIQTYTYEGVEAKRIFKKE
modifications: PEPTIDE (1)...(131) wild-type rat intestinal fatty acid binding protein
B2: 31E3, 72A (protein, listed as Rattus norvegicus)
chain: B1 chain with F23I, G31E
modifications: PEPTIDE (1)...(131) wild-type rat intestinal fatty acid binding protein
B3: 23R3, 72A (protein, listed as Rattus norvegicus)
chain: B1 chain with F23R
modifications: PEPTIDE (1)...(131) wild-type rat intestinal fatty acid binding protein
B4: 31C1, 72A (protein, listed as Rattus norvegicus)
chain: B1 chain with F23I, G31C
modifications: PEPTIDE (1)...(131) wild-type rat intestinal fatty acid binding protein
B5: 23V2, 72A (protein, listed as Rattus norvegicus)
chain: B1 chain with F23V
modifications: PEPTIDE (1)...(131) wild-type rat intestinal fatty acid binding protein
B6: 23Y1, 72A (protein, listed as Rattus norvegicus)
chain: B1 chain with F23Y
modifications: PEPTIDE (1)...(131) wild-type rat intestinal fatty acid binding protein
B7: 23T1, 72A (protein, listed as Rattus norvegicus)
chain: B1 chain with F23T
modifications: PEPTIDE (1)...(131) wild-type rat intestinal fatty acid binding protein
B8: 31D2, 72A (protein, listed as Rattus norvegicus)
chain: B1 chain with F23I, G31D
modifications: PEPTIDE (1)...(131) wild-type rat intestinal fatty acid binding protein
B9: 31K2, 72A (protein, listed as Rattus norvegicus)
chain: B1 chain with F23I, G31K
modifications: PEPTIDE (1)...(131) wild-type rat intestinal fatty acid binding protein
B10: 23W1, 72A (protein, listed as Rattus norvegicus)
chain: B1 chain with F23W
modifications: PEPTIDE (1)...(131) wild-type rat intestinal fatty acid binding protein
B11: 31F2, 72A (protein, listed as Rattus norvegicus)
chain: B1 chain with F23I, G31F
modifications: PEPTIDE (1)...(131) wild-type rat intestinal fatty acid binding protein
B12: 23P1, 72A (protein, listed as Rattus norvegicus)
chain: B1 chain with F23P
modifications: PEPTIDE (1)...(131) wild-type rat intestinal fatty acid binding protein
B13: 23N1, 72A (protein, listed as Rattus norvegicus)
chain: B1 chain with F23N
modifications: PEPTIDE (1)...(131) wild-type rat intestinal fatty acid binding protein
B14: 23H1, 72A (protein, listed as Rattus norvegicus)
chain: B1 chain with F23H
modifications: PEPTIDE (1)...(131) wild-type rat intestinal fatty acid binding protein
B15: 23K1, 72A (protein, listed as Rattus norvegicus)
chain: B1 chain with F23K
modifications: PEPTIDE (1)...(131) wild-type rat intestinal fatty acid binding protein
B16: 23L3, 72A (protein, listed as Rattus norvegicus)
chain: B1 chain with F23L
modifications: PEPTIDE (1)...(131) wild-type rat intestinal fatty acid binding protein
B17: 31M2, 72A (protein, listed as Rattus norvegicus)
chain: B1 chain with F23I, G31M
modifications: PEPTIDE (1)...(131) wild-type rat intestinal fatty acid binding protein
B18: 31I1, 72A (protein, listed as Rattus norvegicus)
chain: B1 chain with F23I, G31I
modifications: PEPTIDE (1)...(131) wild-type rat intestinal fatty acid binding protein

test: Probe fluorescence ratio response to linolenic acid relative to ADIFAB2; type: binding; conditions: response relative to ADIFAB2
Outline: (§1)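 Fluorescently labeled rat intestinal FABP variants were read at two emission wavelengths, near the unbound maximum (about 420 to 480 nm) and the FFA-bound maximum (about 495 to 580 nm). R = Fλ1/Fλ2 after subtracting probe-free intensity; ΔR = R+agent − R0, normalized to ADIFAB2 (rI-FABP-L72A).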

Compared with B1, B2 is higher in “DR/DR LNA” value: 0.17 for the first, 0.82 for the second.

Compared with B3, B4 is higher in “DR/DR LNA” value: 0.14 for the first, 0.36 for the second.

First: B5
Second: B6
The “DR/DR LNA” value of the first is higher: 1.35 for the first, 0.44 for the second.

First: B7
Second: B8
The “DR/DR LNA” value of the first is higher: 0.21 for the first, 0.14 for the second.

Going from B9 to B10, the “DR/DR LNA” value rises from 0.90 to 0.96.

First: B11
Second: B12
The “DR/DR LNA” value of the first is higher: 1.62 for the first, 1.38 for the second.

Going from B13 to B14, the “DR/DR LNA” value rises from 0.13 to 0.17.

First: B15
Second: B16
The “DR/DR LNA” value of the first is lower: 0.13 for the first, 1.03 for the second.

Going from B17 to B18, the “DR/DR LNA” value falls from 0.57 to 0.41.

test: Probe fluorescence ratio response to linoleic acid relative to ADIFAB2; type: binding; conditions: response relative to ADIFAB2
Outline: as §1

First: B1
Second: B2
The “DR/DR LA” value of the first is lower: 0.19 for the first, 0.74 for the second.

Compared with B3, B4 is higher in “DR/DR LA” value: 0.14 for the first, 0.36 for the second.

First: B5
Second: B6
The “DR/DR LA” value of the first is higher: 1.73 for the first, 0.44 for the second.

Compared with B7, B8 is lower in “DR/DR LA” value: 0.33 for the first, 0.16 for the second.

Going from B9 to B10, the “DR/DR LA” value falls from 0.91 to 0.79.

Compared with B11, B12 is lower in “DR/DR LA” value: 1.76 for the first, 1.36 for the second.

B13 and B14 are the same in “DR/DR LA” value: 0.13 for the first, 0.13 for the second.

Going from B15 to B16, the “DR/DR LA” value rises from 0.14 to 1.04.

Compared with B17, B18 is lower in “DR/DR LA” value: 0.41 for the first, 0.17 for the second.

test: Probe fluorescence ratio response to palmitic acid relative to ADIFAB2; type: binding; conditions: response relative to ADIFAB2
Outline: as §1

Compared with B1, B2 is higher in “DR/DR PA” value: 0.12 for the first, 0.38 for the second.

First: B3
Second: B4
The “DR/DR PA” value of the first is lower: 0.10 for the first, 0.23 for the second.

Compared with B5, B6 is lower in “DR/DR PA” value: 1.48 for the first, 0.28 for the second.

Going from B7 to B8, the “DR/DR PA” value falls from 0.24 to 0.06.

Going from B9 to B10, the “DR/DR PA” value rises from 0.42 to 0.49.

First: B11
Second: B12
The “DR/DR PA” value of the first is higher: 1.21 for the first, 0.64 for the second.

First: B13
Second: B14
The “DR/DR PA” value of the first is lower: 0.10 for the first, 0.13 for the second.

Going from B15 to B16, the “DR/DR PA” value rises from 0.08 to 0.93.

Compared with B17, B18 is lower in “DR/DR PA” value: 0.46 for the first, 0.09 for the second.

test: Probe fluorescence ratio response to oleic acid relative to ADIFAB2; type: binding; conditions: response relative to ADIFAB2
Outline: as §1

Compared with B1, B2 is higher in “DR/DR OA” value: 0.20 for the first, 0.50 for the second.

Going from B3 to B4, the “DR/DR OA” value rises from 0.12 to 0.30.

Going from B5 to B6, the “DR/DR OA” value falls from 1.56 to 0.41.

First: B7
Second: B8
The “DR/DR OA” value of the first is higher: 0.19 for the first, 0.13 for the second.

First: B9
Second: B10
The “DR/DR OA” value of the first is higher: 0.97 for the first, 0.45 for the second.

First: B11
Second: B12
The “DR/DR OA” value of the first is higher: 1.43 for the first, 1.24 for the second.

Going from B13 to B14, the “DR/DR OA” value falls from 0.12 to 0.11.

Going from B15 to B16, the “DR/DR OA” value rises from 0.13 to 1.06.

Going from B17 to B18, the “DR/DR OA” value falls from 1.08 to −0.21.

test: Probe fluorescence ratio response to arachidonic acid relative to ADIFAB2; type: binding; conditions: arachidonic acid; response relative to ADIFAB2
Outline: as §1

Going from B1 to B2, the “DR/DR AA” value rises from 0.22 to 0.55.

Going from B3 to B4, the “DR/DR AA” value rises from 0.14 to 0.32.

Going from B5 to B6, the “DR/DR AA” value falls from 1.46 to 0.49.

First: B7
Second: B8
The “DR/DR AA” value of the first is higher: 0.22 for the first, 0.20 for the second.

Going from B9 to B10, the “DR/DR AA” value falls from 0.85 to 0.62.

Compared with B11, B12 is lower in “DR/DR AA” value: 1.41 for the first, 1.25 for the second.

Compared with B13, B14 is higher in “DR/DR AA” value: 0.12 for the first, 0.16 for the second.

First: B15
Second: B16
The “DR/DR AA” value of the first is lower: 0.13 for the first, 1.17 for the second.

Going from B17 to B18, the “DR/DR AA” value falls from 0.52 to 0.30.
